Target: T1, Hsp72 C-terminal tracer (Fam-…) (human)
T1 chain: GSGPTIEEVD
Assay: fluorescence polarisation
Conditions: remark: other sources report otherwise

B1: Human FKBP51 (51-kDa FK506-binding protein), Q13451 1-457 (natural protein)
chain: MTTDEGAKNNEESPTATVAEQGEDITSKKDRGVLKIVKRVGNGEETPMIGDKVYVHYKGKLSNGKKFDSSHDRNEPFVFSLGKGQVIKAWDIGVATMKKGEICHLLCKPEYAYGSAGSLPKIPSNATLFFEIELLDFKGEDLFEDGGIIRRTKRKGEGYSNPNEGATVEIHLEGRCGGRMFDCRDVAFTVGEGEDHDIPIGIDKALEKMQREEQCILYLGPRYGFGEAGKPKFGIEPNAELIYEVTLKSFEKAKESWEMDTKEKLEQAAIVKEKGTVYFKGGKYMQAVIQYGKIVSWLEMEYGLSEKESKASESFLLAAFLNLAMCYLKLREYTKAVECCDKALGLDSANEKGLYRRGEAQLLMNEFESAKGDFEKVLEVNPQNKAARLQISMCQKKAKEHNERDRRIYANMFKKFAEQDAKEEANKAMGKKTSEGVTNEKGTDSQAMEEEKPEGHV
modifications: here or on the partner: 5-carboxyfluorescein (5-Fam) on the N-terminus via a 6-carbon spacer (aminohexanoic acid)
A Kd greater than 75 µM was found for B1 in this work.

Source: PMC4714923
